{"source": "paper PMC8448839", "binders": {"B1": {"name": "GST-Pib2(304-635), P53191 V626A (protein)", "chain": "LPQPASSTNLNFNSNKHKSNVRQISNPKKPLYIPAVLRKVSETNITNDDLLNATLSSYYKKASNLEHGFNPSKSQSASVQNANNLRIISSQSSVQSNTSSILESYKNKISSYLFPNSIPNSDRINLIPTISNRNSARVNPPTKDHWIPDSKRNSCRYCHKPFTLWERKHHCRHCGDIFCQDHLRHWLYLDSQANFIMINELNNGGINGGGTLCKICDDCLVEYENLSTTNHNANTNEDNINVEEGEDDDNDNRKKLRNYYKNRQMNALFRPKKGGSSQEHATVDRDTTTPIQVKSNDEEADNENTGGEQEEGNDVLGSVIGSAPANWNWSSF"}, "B2": {"name": "GST-Pib2(304-635), P53191 A628T (protein)", "chain": "B1 chain with A323V, A325T"}}, "target": "TOR complex 1 (TORC1) in lysate of FLAG-Tor1 expressing yeast cells (TS269), P35169;P38873", "assay": "pull-down (GST) from yeast cell lysate, western blot quantified", "conditions": "chain shown with the change, read off a plot, scale: FLAG-Tor1 / GST-Pib2", "key": {"[1]": {"conditions": "without glutamine, parent: est. 1.0"}}, "note": "Numbering of substitutions follows the chain as printed. In names and notes the source's numbering stands.", "data": [{"binder": "B1", "values": [{"measurement": "response", "setting": "25 mM Gln, parent: est. 6.2", "result": 2.7}, {"measurement": "response", "setting": "[1]", "result": 0.6}]}, {"binder": "B2", "values": [{"measurement": "response", "setting": "25 mM Gln, parent: est. 6.2", "result": 3.5}, {"measurement": "response", "setting": "[1]", "result": 0.6}]}]}
